Measured values as given in the supplement of paper PMC9112550, “Optimization of the antimicrobial peptide Bac7 by deep mutational scanning” (BMC Biology, 2022).

Tested on: Escherichia coli TOP10
Experiment: shrunken log2 fold change of peptide-encoding DNA abundance (4.5 h post-induction vs induction); higher = less antimicrobial activity (less host growth inhibition)
Conditions: time post-induction: 4.5 h; library: site-saturation at positions 5, 18, 19, 20
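Also: peptides expressed intracellularly from a pBAD plasmid library in pooled LB shake-flask culture, induced with 0.3% L-arabinose, DNA abundance read by NGS, three biological replicates, DESeq2 with apeglm shrinkage.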

| Sequence | shrunken log2 fold change |
| --- | --- |
| RRIRLRPPRLPRPRPRPWLIPRP | -0.00228 |
| RRIRYRPPRLPRPRPRPYRCPRP | 0.0155 |
| RRIRHRPPRLPRPRPRPMDIPRP | -0.00136 |
| RRIRTRPPRLPRPRPRPHNDPRP | -1.58 |
| RRIRKRPPRLPRPRPRPMCMPRP | -0.169 |
| RRIRPRPPRLPRPRPRPLHMPRP | -0.342 |
| RRIRQRPPRLPRPRPRPCSAPRP | -0.257 |
| RRIRTRPPRLPRPRPRPERHPRP | -0.0333 |
| RRIRQRPPRLPRPRPRPNRNPRP | -0.658 |
| RRIRIRPPRLPRPRPRPKDEPRP | -0.00382 |
| RRIRGRPPRLPRPRPRPQVYPRP | 0.23 |
| RRIRYRPPRLPRPRPRPRPSPRP | 0.0768 |
| RRIRYRPPRLPRPRPRPKQTPRP | 0.283 |
| RRIRERPPRLPRPRPRPMSRPRP | -0.00149 |
| RRIRRRPPRLPRPRPRPFSFPRP | -0.0665 |
| RRIRGRPPRLPRPRPRPWHAPRP | 0.281 |
| RRIRCRPPRLPRPRPRPARGPRP | 0.297 |
| RRIRRRPPRLPRPRPRPFYNPRP | -0.139 |
| RRIRIRPPRLPRPRPRPHGYPRP | -0.714 |
| RRIRFRPPRLPRPRPRPSLWPRP | 0.29 |
| RRIRRRPPRLPRPRPRPMPYPRP | -0.0473 |
| RRIRVRPPRLPRPRPRPMWTPRP | -0.0192 |
| RRIRHRPPRLPRPRPRPKYCPRP | -0.000924 |
| RRIRMRPPRLPRPRPRPIQPPRP | 0.122 |
| RRIRARPPRLPRPRPRPCPEPRP | 0.179 |

| Sequence | shrunken log2 fold change |
| --- | --- |
| RRIRCRPPRLPRPRPRPTSNPRP | -0.1 |
| RRIRERPPRLPRPRPRPHNIPRP | -0.274 |
| RRIRTRPPRLPRPRPRPAMIPRP | -0.0108 |
| RRIRTRPPRLPRPRPRPLCFPRP | -0.326 |
| RRIRIRPPRLPRPRPRPLNNPRP | -1.15 |
| RRIRHRPPRLPRPRPRPHKNPRP | -0.263 |
| RRIRYRPPRLPRPRPRPCNYPRP | -0.87 |
| RRIRRRPPRLPRPRPRPHGYPRP | 0.0169 |
| RRIRLRPPRLPRPRPRPEEEPRP | -0.00112 |
| RRIRGRPPRLPRPRPRPFEKPRP | 0.22 |
| RRIRTRPPRLPRPRPRPDVQPRP | 0.0493 |
| RRIRLRPPRLPRPRPRPIAAPRP | 0.272 |
| RRIRTRPPRLPRPRPRPLSNPRP | 0.012 |
| RRIRYRPPRLPRPRPRPAAVPRP | 0.0751 |
| RRIRKRPPRLPRPRPRPDMDPRP | 0.0224 |
| RRIRCRPPRLPRPRPRPQLGPRP | -0.00405 |
| RRIRDRPPRLPRPRPRPRRQPRP | 0.161 |
| RRIRYRPPRLPRPRPRPLREPRP | 0.483 |
| RRIRNRPPRLPRPRPRPHAAPRP | 0.545 |
| RRIRSRPPRLPRPRPRPNMIPRP | -0.429 |
| RRIRIRPPRLPRPRPRPCSKPRP | -0.267 |
| RRIRVRPPRLPRPRPRPFTDPRP | 0.0809 |
| RRIRGRPPRLPRPRPRPCTAPRP | 0.875 |
| RRIRTRPPRLPRPRPRPETGPRP | -0.00371 |
| RRIRDRPPRLPRPRPRPEEDPRP | 0.012 |

| Sequence | shrunken log2 fold change |
| --- | --- |
| RRIRGRPPRLPRPRPRPISSPRP | 0.393 |
| RRIRVRPPRLPRPRPRPIWEPRP | -0.00136 |
| RRIRPRPPRLPRPRPRPTYMPRP | -0.0483 |
| RRIRSRPPRLPRPRPRPFVYPRP | -0.368 |
| RRIRDRPPRLPRPRPRPLWCPRP | -0.15 |
| RRIRERPPRLPRPRPRPEYTPRP | -0.313 |
| RRIRCRPPRLPRPRPRPRSPPRP | 0.636 |
| RRIRTRPPRLPRPRPRPMNMPRP | -0.24 |
| RRIRNRPPRLPRPRPRPISQPRP | -0.261 |
| RRIRTRPPRLPRPRPRPPLCPRP | 0.0694 |
| RRIRGRPPRLPRPRPRPIQNPRP | 0.0261 |
| RRIRSRPPRLPRPRPRPVIQPRP | -0.178 |
| RRIRTRPPRLPRPRPRPSWSPRP | -0.196 |
| RRIRDRPPRLPRPRPRPNPRPRP | 0.0975 |
| RRIRFRPPRLPRPRPRPVFWPRP | 0.423 |
| RRIRPRPPRLPRPRPRPGVQPRP | 0.336 |
| RRIRQRPPRLPRPRPRPTKPPRP | 0.0859 |
| RRIRFRPPRLPRPRPRPADHPRP | 0.00851 |
| RRIRVRPPRLPRPRPRPQFNPRP | -0.389 |
| RRIRPRPPRLPRPRPRPECSPRP | -0.0845 |
| RRIRFRPPRLPRPRPRPHVLPRP | -0.286 |
| RRIRMRPPRLPRPRPRPDVLPRP | -0.123 |
| RRIRNRPPRLPRPRPRPVHMPRP | -0.0948 |
| RRIRWRPPRLPRPRPRPEFMPRP | 0.635 |
| RRIRHRPPRLPRPRPRPHTRPRP | -0.174 |

| Sequence | shrunken log2 fold change |
| --- | --- |
| RRIRDRPPRLPRPRPRPRPQPRP | 1.8 |
| RRIRMRPPRLPRPRPRPRQIPRP | 1.19 |
| RRIRQRPPRLPRPRPRPEKTPRP | -0.0176 |
| RRIRWRPPRLPRPRPRPNKLPRP | -0.277 |
| RRIRTRPPRLPRPRPRPLAGPRP | 0.0232 |
| RRIRVRPPRLPRPRPRPWRIPRP | -0.00931 |
| RRIRARPPRLPRPRPRPRWEPRP | 0.431 |
| RRIRTRPPRLPRPRPRPTCYPRP | -0.0585 |
| RRIRARPPRLPRPRPRPHDKPRP | -0.0542 |
| RRIRFRPPRLPRPRPRPAWWPRP | 0.273 |
| RRIRTRPPRLPRPRPRPFEIPRP | 0.0711 |
| RRIRIRPPRLPRPRPRPDGFPRP | -0.00369 |
| RRIRIRPPRLPRPRPRPFIDPRP | -0.205 |
| RRIRHRPPRLPRPRPRPNQSPRP | -0.3 |
| RRIRMRPPRLPRPRPRPFHTPRP | 0.0481 |
| RRIRVRPPRLPRPRPRPSDKPRP | -0.153 |
| RRIRDRPPRLPRPRPRPLDSPRP | 0.148 |
| RRIRIRPPRLPRPRPRPKYCPRP | 0.00104 |
| RRIRVRPPRLPRPRPRPQEHPRP | -0.251 |
| RRIRMRPPRLPRPRPRPMNEPRP | -0.101 |
| RRIRARPPRLPRPRPRPICHPRP | 0.0398 |
| RRIRARPPRLPRPRPRPCRVPRP | -0.19 |
| RRIRQRPPRLPRPRPRPDNQPRP | -0.037 |
| RRIRWRPPRLPRPRPRPAQQPRP | -0.00145 |
| RRIRDRPPRLPRPRPRPWRMPRP | -0.397 |

| Sequence | shrunken log2 fold change |
| --- | --- |
| RRIRVRPPRLPRPRPRPHNEPRP | -0.811 |
| RRIRERPPRLPRPRPRPEAPPRP | 0.406 |
| RRIRGRPPRLPRPRPRPEGQPRP | 1.13 |
| RRIRERPPRLPRPRPRPYGRPRP | -0.264 |
| RRIRIRPPRLPRPRPRPPVHPRP | -0.185 |
| RRIRERPPRLPRPRPRPRPTPRP | 0.35 |
| RRIRDRPPRLPRPRPRPLMCPRP | 0.498 |
| RRIRSRPPRLPRPRPRPWQGPRP | 0.0115 |
| RRIRNRPPRLPRPRPRPAYPPRP | 0.0183 |
| RRIRVRPPRLPRPRPRPEDHPRP | -0.021 |
| RRIRYRPPRLPRPRPRPRVMPRP | -0.155 |
| RRIRARPPRLPRPRPRPDYKPRP | -0.0382 |
| RRIRNRPPRLPRPRPRPRLSPRP | 0.0939 |
| RRIRPRPPRLPRPRPRPFGYPRP | -0.24 |
| RRIRWRPPRLPRPRPRPCFDPRP | 0.172 |
| RRIRRRPPRLPRPRPRPLWMPRP | 0.0635 |
| RRIRTRPPRLPRPRPRPQLDPRP | -0.0457 |
| RRIRIRPPRLPRPRPRPAWSPRP | -0.191 |
| RRIRHRPPRLPRPRPRPITWPRP | -0.149 |
| RRIRARPPRLPRPRPRPRFHPRP | -0.0673 |
| RRIRWRPPRLPRPRPRPFELPRP | -0.285 |
| RRIRMRPPRLPRPRPRPGIQPRP | -0.105 |
| RRIRLRPPRLPRPRPRPVEQPRP | -0.0062 |
| RRIRARPPRLPRPRPRPLLPPRP | 0.419 |
| RRIRDRPPRLPRPRPRPLPNPRP | -0.234 |

| Sequence | shrunken log2 fold change |
| --- | --- |
| RRIRLRPPRLPRPRPRPWIRPRP | -0.0231 |
| RRIRARPPRLPRPRPRPRAKPRP | 0.868 |
| RRIRQRPPRLPRPRPRPYAVPRP | -0.00389 |
| RRIRFRPPRLPRPRPRPPQRPRP | 0.617 |
| RRIRPRPPRLPRPRPRPAMNPRP | 0.193 |
| RRIRLRPPRLPRPRPRPGFVPRP | 0.487 |
| RRIRTRPPRLPRPRPRPLFTPRP | -0.352 |
| RRIRVRPPRLPRPRPRPLYCPRP | -0.596 |
| RRIRPRPPRLPRPRPRPKHKPRP | -0.0938 |
| RRIRYRPPRLPRPRPRPRYVPRP | -0.0777 |
| RRIRRRPPRLPRPRPRPVMSPRP | 0.042 |
| RRIRVRPPRLPRPRPRPNDNPRP | -0.481 |
| RRIRERPPRLPRPRPRPPYWPRP | 0.0536 |
| RRIRYRPPRLPRPRPRPYVEPRP | -0.00822 |
| RRIRERPPRLPRPRPRPYWDPRP | -0.111 |
| RRIRKRPPRLPRPRPRPNYSPRP | -0.0472 |
| RRIRARPPRLPRPRPRPIDTPRP | 0.0213 |
| RRIRWRPPRLPRPRPRPSNFPRP | -0.391 |
| RRIRMRPPRLPRPRPRPKPTPRP | 0.266 |
| RRIRKRPPRLPRPRPRPGKSPRP | 0.0157 |
| RRIRLRPPRLPRPRPRPGIRPRP | 0.0174 |
| RRIRCRPPRLPRPRPRPLVIPRP | -0.401 |
| RRIRRRPPRLPRPRPRPHKMPRP | -0.167 |
| RRIRQRPPRLPRPRPRPINEPRP | 0.0162 |
| RRIRHRPPRLPRPRPRPYDCPRP | -0.0596 |
